This note sets out measurements from publication PMC9706586.

Test [1] addresses CD20 (human) (UniProt P11836). The test is described as follows: SPR; Biacore T200, CM5 chip with immobilised anti-His antibody, 20 °C; His-tagged receptor or antigen captured; serial dilutions of anti-CD20 X-body, IgG or IgA injected (120 s binding, 240 s dissociation, 30 µL/min); 1:1 binding kinetic model or steady-state affinity model.
Test [2] deals with FcγRIIIa^V158 (human). Described as above.
The target of test [3] is FcγRIIb (human) (UniProt P31994). The description is as above.
Sequence of FcγRIIb (human) (P31994 43-217): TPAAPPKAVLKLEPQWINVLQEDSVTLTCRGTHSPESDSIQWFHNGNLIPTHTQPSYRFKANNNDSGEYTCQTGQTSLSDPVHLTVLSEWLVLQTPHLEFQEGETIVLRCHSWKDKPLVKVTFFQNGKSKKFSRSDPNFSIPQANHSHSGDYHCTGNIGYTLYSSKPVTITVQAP
Test [4] addresses FcγRIIa^H131 (human) (UniProt P12318). The description is as above.
For test [5], the target named is FcRn (UniProt P55899). The test is described as above.
The target in test [6] is FcγRIIIa^F158 (human) (UniProt P08637). The description is as above.
Sequence of FcγRIIIa^F158 (human) (P08637 17-208): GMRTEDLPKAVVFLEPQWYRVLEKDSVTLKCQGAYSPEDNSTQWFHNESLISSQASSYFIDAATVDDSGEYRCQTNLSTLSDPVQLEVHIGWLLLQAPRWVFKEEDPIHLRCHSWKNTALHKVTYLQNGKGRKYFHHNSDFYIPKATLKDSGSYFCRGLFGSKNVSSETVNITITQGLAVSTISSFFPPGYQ
For test [7], the target named is CD89 (human) (UniProt P24071). The test is described as follows: SPR; Biacore T200; CM5 chip with immobilised anti-His antibody captures the His-tagged receptor or antigen; serial dilutions of antibody injected (120 s binding, 240 s dissociation, 30 µL/min); 20 °C; 1:1 binding kinetic model or steady-state affinity model.
Sequence of CD89 (human) (P24071 22-287): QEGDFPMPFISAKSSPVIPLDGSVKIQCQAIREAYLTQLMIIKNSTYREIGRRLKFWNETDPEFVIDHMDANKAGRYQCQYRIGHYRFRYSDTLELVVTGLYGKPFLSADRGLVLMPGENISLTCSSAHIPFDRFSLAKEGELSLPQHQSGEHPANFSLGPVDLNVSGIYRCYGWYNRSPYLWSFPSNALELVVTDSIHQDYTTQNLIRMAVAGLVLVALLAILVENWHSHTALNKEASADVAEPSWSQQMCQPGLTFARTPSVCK
The target of test [8] is FcγRI (UniProt P12314). The description is as above.
Sequence of FcγRI (P12314 16-374): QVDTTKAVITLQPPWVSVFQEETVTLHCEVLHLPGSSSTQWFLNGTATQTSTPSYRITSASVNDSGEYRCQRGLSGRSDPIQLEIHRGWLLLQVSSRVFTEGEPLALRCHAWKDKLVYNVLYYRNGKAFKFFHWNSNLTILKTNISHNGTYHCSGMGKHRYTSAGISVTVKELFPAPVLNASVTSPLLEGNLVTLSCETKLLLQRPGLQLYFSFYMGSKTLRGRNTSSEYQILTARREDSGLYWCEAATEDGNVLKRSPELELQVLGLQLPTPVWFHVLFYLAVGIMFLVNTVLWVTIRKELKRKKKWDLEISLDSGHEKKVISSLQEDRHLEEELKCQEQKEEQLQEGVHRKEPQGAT

Sequence of CD20 (human) (P11836 whole entry): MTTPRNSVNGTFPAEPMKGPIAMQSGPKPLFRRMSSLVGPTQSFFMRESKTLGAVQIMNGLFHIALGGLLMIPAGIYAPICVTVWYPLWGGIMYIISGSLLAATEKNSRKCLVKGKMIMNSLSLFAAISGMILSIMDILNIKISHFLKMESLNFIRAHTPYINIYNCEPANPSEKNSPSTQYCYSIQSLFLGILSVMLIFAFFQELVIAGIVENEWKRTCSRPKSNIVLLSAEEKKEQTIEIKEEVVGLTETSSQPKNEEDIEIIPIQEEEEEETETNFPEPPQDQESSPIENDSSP
Sequence of FcγRIIa^H131 (human) (P12318 34-217): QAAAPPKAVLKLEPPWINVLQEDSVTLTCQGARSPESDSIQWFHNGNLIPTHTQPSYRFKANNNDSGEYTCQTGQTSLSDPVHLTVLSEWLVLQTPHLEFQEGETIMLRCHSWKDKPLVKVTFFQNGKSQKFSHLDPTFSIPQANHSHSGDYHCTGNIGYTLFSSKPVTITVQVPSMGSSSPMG

In test [1], Rituximab IgA (antibody) registered a Kd of 6.71 nM.

Rituximab IgG (antibody): the Kd in test [2] is 0.0603 nM; in test [3], 0.00277 nM; in test [4], 0.0548 nM; in test [5], 0.0391 nM; in test [1], 3.74 nM; in test [6], 0.0663 nM.

Regarding trastuzumab IgA (antibody), the Kd worked out at 58.8 nM in test [7] and 272 nM in test [8].

In turn, trastuzumab IgG (antibody) displayed a Kd in test [8] of 113 nM.
